Results published in PMC3815950 (Microbial biotechnology, 2009).
Values joined by “and” are separate entries in the source; they are usually repeats but may differ in a detail not shown here. Identical values can stand only once.

Columns and labels:
SEC = target: the molecule itself; assay: SEC
[1] = substrate: [H][C@]12SCC(COC(C)=O)=C(C(=O)O)N1C(=O)[C@H]2NC(=O)CCC[C@@H](N)C(=O)O; assay: acetate release, Michaelis-Menten; type: biochemical, Thermotoga maritima; settings: 50 mM sodium phosphate pH 6.5, 60 °C

B1: Thermotoga maritima acetyl xylan esterase AxeA (enzyme)
chain: MAFFDLPLEELKKYRPERYEEKDFDEFWEETLAESEKFPLDPVFERMESHLKTVEAYDVTFSGYRGQRIKGWLLVPKLEEEKLPCVVQYIGYNGGRGFPHDWLFWPSMGYICFVMDTRGQGSGWLKGDTPDYPEGPVDPQYPGFMTRGILDPRTYYYRRVFTDAVRAVEAAASFPQVDQERIVIAGGSQGGGIALAVSALSKKAKALLCDVPFLCHFRRAVQLVDTHPYAEITNFLKTHRDKEEIVFRTLSYFDGVNFAARAKIPALFSVGLMDNICPPSTVFAAYNYYAGPKEIRIYPYNNHEGGGSFQAVEQVKFLKKLFEKG
- stoichiometry N (SEC): 6 and 2
- Km [1]: 4.18 ± 0.97 mM
- Vmax [1]: 19.2 µmol/min/mg
- kcat [1]: 11.8 s⁻¹
- kcat/Km [1]: 2830 M⁻¹ s⁻¹
